Measurements published in patent US20110195896A1 (CASE WESTERN RESERVE UNIVERSITY, published 2011).
Numbering of substitutions follows the chain as printed. Each block holds one binder with its values, some of them ahead of it. Ends that are not written are not given here.

How the values were obtained:
Type I IGF receptor [1] = target: T1, Type I IGF receptor (UniProt P08069 31-1367); assay: competitive displacement of labelled tracer from IGFR
T1 construct: also called IGF-I RECEPTOR; Insulin-like Growth Factor Receptor
Description: Receptor-Binding Assays. […] This assay employs the purified epitope-tagged receptor (IR-A, IR-B, or IGFR) using a microtiter-plate antibody-capture assay as known in the art. The epitope tag consists of three tandem repeats of the FLAG epitope. Microtiter strip plates (Nunc Maxisorb) were incubated overnight at 4° C. with anti-FLAG IgG (100 μl/well of […] in phosphate-buffered saline). Binding data were analyzed by a single-site heterologous competition binding model. A corresponding microtiter plate antibody assay using the epitope-tagged IGF Type I receptor was employed to assess cross-binding of analogues to this homologous receptor.

Type I IGF receptor [2] = target: T1, Type I IGF receptor; assay: competitive displacement of 125I-IGF-1 from IGFR

Kd (Type I IGF receptor [1]): 27.6 nM
Kd (Type I IGF receptor [2]): 27.6 nM
B1: [His^A8, Asp^B28, Pro^B29]-SCI (57-mer single-chain insulin analogue, linker GGGPRR) (ligand)
chain: FVNQHLCGSHLVEALYLVCGERGFFYTDPTGGGPRRGIVEQCCHSICSLYQLENYCN
modifications: ends and bridges not checked; cysteine pairing not given here
notes: Made by total chemical synthesis and native ligation

Kd (Type I IGF receptor [1]): 9.89 nM
B2: His^A8, Asp^B10, Asp^B28, Pro^B29 SCI (ligand)
chain: B1 chain with H10D
notes: also called SCI (His^A8, Asp^B10, Asp^B28, and Pro^B29); SCI containing the substitution Asp^B10
